The text below walks through data of US20170355765A1 (published 2017).

The target in this assay is T1, human TEM8 expressed on CHO or HEK 293 cells (human, UniProt Q9H6X2 33-564).
T1 construct: also called hTEM8; CHO TEM8
Nature of the assay: binding to CHO cells expressing human TEM8.

T1 sequence (Q9H6X2 33-564 limits assumed): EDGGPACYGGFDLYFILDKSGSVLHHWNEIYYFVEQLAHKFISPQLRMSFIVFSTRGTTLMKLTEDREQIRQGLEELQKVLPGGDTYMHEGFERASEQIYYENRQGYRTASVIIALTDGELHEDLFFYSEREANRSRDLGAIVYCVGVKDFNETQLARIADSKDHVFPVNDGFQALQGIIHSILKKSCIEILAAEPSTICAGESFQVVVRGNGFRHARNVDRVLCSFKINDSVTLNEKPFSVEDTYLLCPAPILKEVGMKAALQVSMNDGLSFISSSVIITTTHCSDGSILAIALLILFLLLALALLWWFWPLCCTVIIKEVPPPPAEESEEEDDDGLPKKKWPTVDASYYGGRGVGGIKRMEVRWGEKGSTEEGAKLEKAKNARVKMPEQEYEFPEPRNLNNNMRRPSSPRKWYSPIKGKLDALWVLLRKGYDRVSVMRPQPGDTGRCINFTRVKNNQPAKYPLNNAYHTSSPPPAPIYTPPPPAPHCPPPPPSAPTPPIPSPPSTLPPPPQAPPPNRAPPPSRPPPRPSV

B1: antibody drug conjugate including the m825 antibody (in human IgG1 format) conjugated to MMAE (other)
VH: QVQLVQSGAEVKKPGTSVKVSCKVPGYTFSSYAISWVRQAPGQGLEWMGGIIPIFGTTNYAQKFQGRVTITGEESTSTVYMELSSLRSEDTAVYYCARDTDYMFDYWGQGTLVTVSS
VL: SSELTQDPVVSVALGETVSITCQGDNLRDFYASWYQQKPGQAPLLVMYGKNRRPSGIPDRFSGSTSGNTLSLTITGAQAEDEADYYCSSRDNSKHVVFGGGTKVTVL
modifications: MMAE toxin with stretcher unit, Val-Cit peptide cleavage site and spacer, linked to thiol groups formed by partial reduction of inter-chain disulfide bonds (positions not stated)
notes: also called m825-MMAE; m825-MMAE conjugate
As for B1, the binding result is “binds”.
